Reference: patent publication US20040071702A1 (Genmab, published 2004)

Target: T1, IL-15Rα constitutively expressed on Raji cells (UniProt Q13261 31-267, limits assumed)
T1 construct: whole, on cells; also called IL-15R-expressing Raji cells
Assay: flow cytometry, IL-15Rα-expressing Raji cells without IL-15, biotinylated 146B7, streptavidin-PE; stimulation index
Procedure: Raji cells are pre-incubated (20 minutes at 4° C.) with 10% human pooled AB serum (CLB, Amsterdam, Netherlands)in FACS buffer (PBS, 0.05%BSA, 0.02% NaNO₃). Raji cells (1-2*10⁵ cells/ml) were put in the wells, and 50 μl of unlabeled IL-15 was added in several concentrations (diluted in FACS buffer with 10% human AB serum). […] After washing twice in FACS buffer, 50 μl of streptavidin-phycoerythrin was added to each well (30 minutes at 4° C.). After washing twice in FACS buffer, cells were taken up in 200 μl of FACS buffer, and fluorescence intensity of at least 5000 cells per sample was determined after analysis by flow cytometry (FACS Calibur, Becton Dickinson) using CellQuest software.

T1 sequence (Q13261 31-267 limits assumed): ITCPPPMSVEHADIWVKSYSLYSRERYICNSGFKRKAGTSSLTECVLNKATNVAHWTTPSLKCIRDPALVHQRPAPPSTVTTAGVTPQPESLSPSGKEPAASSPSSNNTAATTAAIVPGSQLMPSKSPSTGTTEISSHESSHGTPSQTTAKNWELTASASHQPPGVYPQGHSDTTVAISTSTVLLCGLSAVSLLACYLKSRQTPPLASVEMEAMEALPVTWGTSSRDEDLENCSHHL

B1: human anti-IL-15 antibody 146B7 (antibody, human IgG1, V domains shown)
VH: EVQLVQSGAEVKKPGESLKISCKVSGYFFTTYWIGWVRQMPGKGLEYMGIIYPGDSDTRYSPSFQGQVTISADKSISTAYLQWSSLKASDTAMYYCARGGNWNCFDYWGQGTLVTVSS
VL: EIVLTQSPGTLSLSPGERATLSCRASQSVSSSYLAWYQQKPGQAPRLLIYGASRRATGIPDRFSGSGSGTDFTLTISRLEPEDFAVYYCQRYGSSHTFGQGTKLEISR
notes: also called MDX015
  binding result: no binding (tested: 10000 (unit not printed on the sheet))
